± gives the uncertainty stated by the source.
Assay: self-splicing fitness, log relative to wild type (ln ratio); higher = more splicing; Tetrahymena group I intron in knt gene, E. coli kanamycin selection, DiMSum; sequences stand for … in CUCUCU…GGAGGGAAAAGUUAUCAGGCAUGCACCUGGUAGCUAGUCUUUAAACCAAUAGAUUGCAUCGGUUUAAAAGGCAAGACCGUCAAAUUGCGGGAAAGGGGUCAACAGCCGUUCAGUACCAAGUCUCAGGGGAAACUUUGAGAUGGCCUUGCAAAGGGUAUGGUAAUAAGCUGACGGACAUGGUCCUAACCACGCAGCCAAGUCCUAAGUCAACAGAUCUUCUGUUGAUAUGGAUGCAGUUCACAGACUAAAUGUCGGUCGGGGAAGAUGUAUUCUUCUCAUAAGAUAUAGUCGGACCUCUCCUUAAUGGGAGCUAGCGGAUGAAGUGAUGCAACACUGGAGCCGCUGGGAACUAAUUUGUAUGCGAAAGUAUAUUGAUUAGUUUUGGAGUACUCGUGGUCG
Outline: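 Six replicate transformations of E. coli BL21(DE3) with a pET-22b(+) library were grown overnight at 37°C or 30°C. The library randomised all eight P1ex-region intron nucleotides, the intron lying in the knt kanamycin-resistance gene, and plates were LB agar with or without 25 μg/mL kanamycin plus 100 μg/mL carbenicillin, 50 μM IPTG and 0.2% rhamnose. Pooled colonies were amplicon-sequenced on an Illumina HiSeq 2500, and fitness is the DiMSum error-weighted combination of wild-type-normalised replicate fold changes, kanamycin versus none.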

| Sequence | self-splicing fitness (ln) (30 °C) | self-splicing fitness (ln) (37 °C) |
| --- | --- | --- |
| GACGAGCAAUAUUACGUCGA | -1.82 ± 0.23 |  |
| GACGAGCAAUAUUACGUGCA | -3.06 ± 0.17 | -0.901 ± 0.16 |
| GACGAGCAAUAUUACGUUAA | -3.77 ± 0.27 | -2.79 ± 0.25 |
| GACGAGCAAUAUUACGUUAG | -3.02 ± 0.17 | -2.56 ± 0.19 |
| GACUAGCAAUAUUACGACGU | -0.558 ± 0.085 | 0.328 ± 0.099 |
| GACUAGCAAUAUUACGACUC | -0.54 ± 0.097 | 0.55 ± 0.14 |
| GACUAGCAAUAUUACGAUGG | -3.49 ± 0.13 | -2.24 ± 0.12 |
| GACUAGCAAUAUUACGCACG | -0.535 ± 0.068 | 0.219 ± 0.085 |
| GACUAGCAAUAUUACGCAUA | -0.568 ± 0.1 | -0.145 ± 0.096 |
| GACUAGCAAUAUUACGCCAA |  | -1.6 ± 0.29 |
| GACUAGCAAUAUUACGCCUC | -0.374 ± 0.14 | -1.76 ± 0.16 |
| GACUAGCAAUAUUACGCUAG | -2.44 ± 0.31 | -1.16 ± 0.26 |
| GACUAGCAAUAUUACGCUAU |  | -3.22 ± 0.43 |
| GACUAGCAAUAUUACGGAAC | -1.61 ± 0.12 | -1.15 ± 0.17 |
| GACUAGCAAUAUUACGGAAU | -2.12 ± 0.12 | -1.91 ± 0.14 |
| GACUAGCAAUAUUACGGACC | -1.77 ± 0.38 | -0.714 ± 0.39 |
| GACUAGCAAUAUUACGGCUG | -1.04 ± 0.079 | -0.193 ± 0.087 |
| GACUAGCAAUAUUACGGGAU | -1.59 ± 0.14 | -0.788 ± 0.14 |
| GACUAGCAAUAUUACGGGCC |  | -2.46 ± 0.41 |
| GACUAGCAAUAUUACGUAUA | -1.01 ± 0.11 | -0.555 ± 0.13 |
| GACUAGCAAUAUUACGUCAA | -2.55 ± 0.16 | -2 ± 0.12 |
| GACUAGCAAUAUUACGUCCU | -1.15 ± 0.2 | 0.446 ± 0.17 |
| GACUAGCAAUAUUACGUGAU | -1.83 ± 0.078 | -0.383 ± 0.087 |
| GACUAGCAAUAUUACGUGGU | -3.39 ± 0.13 | -2.73 ± 0.15 |
| GACUAGCAAUAUUACGUUCU | -3.33 ± 0.26 | -0.968 ± 0.14 |

| Sequence | self-splicing fitness (ln) (30 °C) | self-splicing fitness (ln) (37 °C) |
| --- | --- | --- |
| GAGAAGCAAUAUUACGAAGC | -3.21 ± 0.28 | -1.65 ± 0.29 |
| GAGAAGCAAUAUUACGACAG | -2.31 ± 0.19 | -3.09 ± 0.4 |
| GAGAAGCAAUAUUACGACCA | -1.12 ± 0.18 | 0.744 ± 0.3 |
| GAGAAGCAAUAUUACGACUG | -0.535 ± 0.062 | -0.0404 ± 0.073 |
| GAGAAGCAAUAUUACGAGAU | -4.47 ± 0.42 | -2.1 ± 0.22 |
| GAGAAGCAAUAUUACGAGUA | -2.04 ± 0.2 | -1.73 ± 0.12 |
| GAGAAGCAAUAUUACGAUAA | -2.02 ± 0.14 | -0.42 ± 0.15 |
| GAGAAGCAAUAUUACGCAGC | -3.2 ± 0.38 | -1.48 ± 0.26 |
| GAGAAGCAAUAUUACGCAUU | -2.53 ± 0.12 | -2.08 ± 0.17 |
| GAGAAGCAAUAUUACGCCCU | -0.493 ± 0.16 | 0.146 ± 0.18 |
| GAGAAGCAAUAUUACGCCGG | -2.05 ± 0.44 | 0.0344 ± 0.4 |
| GAGAAGCAAUAUUACGCGGG | -2.86 ± 0.14 | -1.88 ± 0.14 |
| GAGAAGCAAUAUUACGCUGC | -2.78 ± 0.46 | -2.26 ± 0.49 |
| GAGAAGCAAUAUUACGGAAU | -3.69 ± 0.25 | -1.55 ± 0.2 |
| GAGAAGCAAUAUUACGGAGG |  | -2.47 ± 0.21 |
| GAGAAGCAAUAUUACGGCGG | -1.9 ± 0.12 | -1.25 ± 0.15 |
| GAGAAGCAAUAUUACGGUAA | -1.64 ± 0.2 | -1.57 ± 0.18 |
| GAGAAGCAAUAUUACGGUGU | -3.57 ± 0.15 | -1.58 ± 0.099 |
| GAGAAGCAAUAUUACGUACC | -1.18 ± 0.23 | -0.414 ± 0.35 |
| GAGAAGCAAUAUUACGUGAG | -1.32 ± 0.058 | -1.57 ± 0.1 |
| GAGAAGCAAUAUUACGUGCC | -0.556 ± 0.11 | -0.064 ± 0.11 |
| GAGAAGCAAUAUUACGUGGA | -2.64 ± 0.17 | -1.81 ± 0.14 |
| GAGAAGCAAUAUUACGUGUA | -2.8 ± 0.15 | -1.41 ± 0.13 |
| GAGAAGCAAUAUUACGUUCG | -1.38 ± 0.072 | -0.765 ± 0.095 |
| GAGAAGCAAUAUUACGUUUU | -2.39 ± 0.14 | -1.96 ± 0.17 |

| Sequence | self-splicing fitness (ln) (30 °C) | self-splicing fitness (ln) (37 °C) |
| --- | --- | --- |
| GAGCAGCAAUAUUACGAAGG |  | -2.79 ± 0.34 |
| GAGCAGCAAUAUUACGACAC | -0.81 ± 0.23 | -0.627 ± 0.21 |
| GAGCAGCAAUAUUACGACUG | -1.75 ± 0.11 | -2.01 ± 0.18 |
| GAGCAGCAAUAUUACGAGAU | -3.68 ± 0.18 | -2.64 ± 0.17 |
| GAGCAGCAAUAUUACGAUAG | -3.7 ± 0.29 | -3.14 ± 0.24 |
| GAGCAGCAAUAUUACGAUCG | -2.76 ± 0.17 | -2.48 ± 0.26 |
| GAGCAGCAAUAUUACGAUUC | -0.868 ± 0.093 | -0.29 ± 0.14 |
| GAGCAGCAAUAUUACGCAGA | -3.22 ± 0.21 | -0.954 ± 0.1 |
| GAGCAGCAAUAUUACGCAGG | -2.08 ± 0.13 | -2.55 ± 0.19 |
| GAGCAGCAAUAUUACGCGCU | -3.19 ± 0.38 | -1.9 ± 0.36 |
| GAGCAGCAAUAUUACGCUUG | -2.4 ± 0.13 | -0.209 ± 0.12 |
| GAGCAGCAAUAUUACGGAUG | -3.85 ± 0.25 | -1.73 ± 0.15 |
| GAGCAGCAAUAUUACGGGAG | -3.68 ± 0.32 | -2.9 ± 0.35 |
| GAGCAGCAAUAUUACGGGGU | -2.96 ± 0.16 | -3.18 ± 0.17 |
| GAGCAGCAAUAUUACGGGUG | -4.47 ± 0.22 | -2.17 ± 0.15 |
| GAGCAGCAAUAUUACGGUCG | -2 ± 0.17 | -2.28 ± 0.17 |
| GAGCAGCAAUAUUACGUAGA | -2.24 ± 0.1 | -1.03 ± 0.13 |
| GAGCAGCAAUAUUACGUAGC | -0.99 ± 0.11 | -1.65 ± 0.13 |
| GAGCAGCAAUAUUACGUCGC | -2.31 ± 0.14 | -1.47 ± 0.15 |
| GAGCAGCAAUAUUACGUUCA | -1.38 ± 0.13 | -0.931 ± 0.13 |
| GAGCAGCAAUAUUACGUUCU |  | -2.48 ± 0.26 |
| GAGCAGCAAUAUUACGUUUG | -2.84 ± 0.11 | -1.31 ± 0.11 |
| GAGGAGCAAUAUUACGAACA | -2.69 ± 0.23 | -2.07 ± 0.16 |
| GAGGAGCAAUAUUACGACGU | -1.37 ± 0.13 | -0.0936 ± 0.15 |
| GAGGAGCAAUAUUACGAGCG | -3.24 ± 0.35 | -1.55 ± 0.28 |

| Sequence | self-splicing fitness (ln) (30 °C) | self-splicing fitness (ln) (37 °C) |
| --- | --- | --- |
| GAGGAGCAAUAUUACGAGUA |  | -1.51 ± 0.37 |
| GAGGAGCAAUAUUACGAUAC | -1.9 ± 0.18 | -2.05 ± 0.38 |
| GAGGAGCAAUAUUACGAUGA | -2.31 ± 0.24 | -1.42 ± 0.35 |
| GAGGAGCAAUAUUACGAUGG | -3.58 ± 0.2 | -2.44 ± 0.22 |
| GAGGAGCAAUAUUACGAUGU | -3.29 ± 0.33 | -2.69 ± 0.32 |
| GAGGAGCAAUAUUACGCACU |  | -1.49 ± 0.36 |
| GAGGAGCAAUAUUACGCGGA | -3.27 ± 0.4 | -2.76 ± 0.41 |
| GAGGAGCAAUAUUACGCGUA | -2.97 ± 0.27 | -1.6 ± 0.37 |
| GAGGAGCAAUAUUACGGCGA | -1.1 ± 0.23 | -0.687 ± 0.2 |
| GAGGAGCAAUAUUACGGCGG | -2.33 ± 0.2 | -1.7 ± 0.38 |
| GAGGAGCAAUAUUACGGGAG | -4.37 ± 0.29 | -3.63 ± 0.35 |
| GAGGAGCAAUAUUACGGGGU | -4.47 ± 0.34 | -2.64 ± 0.22 |
| GAGGAGCAAUAUUACGGUAA | -3.65 ± 0.37 | -2.22 ± 0.36 |
| GAGGAGCAAUAUUACGGUGC | -3.87 ± 0.28 | -2.32 ± 0.15 |
| GAGGAGCAAUAUUACGUAAG | -3.04 ± 0.27 | -2.13 ± 0.34 |
| GAGGAGCAAUAUUACGUAUG | -3.97 ± 0.47 | -2.83 ± 0.4 |
| GAGGAGCAAUAUUACGUGCC | -3.24 ± 0.26 | -2.41 ± 0.28 |
| GAGUAGCAAUAUUACGAAAU | -2.68 ± 0.21 | -1.37 ± 0.23 |
| GAGUAGCAAUAUUACGACGU | 0.156 ± 0.093 | 0.524 ± 0.11 |
| GAGUAGCAAUAUUACGACUA | 0.106 ± 0.14 | -0.537 ± 0.13 |
| GAGUAGCAAUAUUACGAGGA |  | -1.81 ± 0.4 |
| GAGUAGCAAUAUUACGAGUA | -1.92 ± 0.16 | -1.28 ± 0.17 |
| GAGUAGCAAUAUUACGAUAA | -2.41 ± 0.25 | -1.18 ± 0.2 |
